Data as given in the Human Domainome abundance scans (Beltran et al. 2025).

B1: POU domain, class 3, transcription factor 1, residues 247 to 324; numbered along this chain, Q03052 (parent)
chain: EDAPSSDDLEQFAKQFKQRRIKLGFTQADVGLALGTLYGNVFSQTTICRFEALQLSFKNMCKLKPLLNKWLEETDSSS
B2: Cytoplasmic polyadenylation element-binding protein 2, residues 513 to 575; numbered along this chain, Q7Z5Q1 (parent)
chain: KRVEVKPYVLDDQMCDECQGARCGGKFAPFFCANVTCLQYYCEFCWANIHSRAGREFHKPLVK

Variants of: B1
Assay: abundance fitness (aPCA) (normalised: wild type 0, dead -1); higher = more abundant; growth selection in yeast, the domain comes from the species named
Settings: Homo sapiens

Abundance fitness of substitutions, site by site:
L71: T -0.988 | M 0.03 | C -0.712 | R -0.569 | N -0.341 | S -0.706 | D -0.711 | I -0.019 | V -0.356 | Q -0.504 | P -1.1 | H -0.402 | W -0.584 | K -0.677 | E -0.63 | F -0.82 | G -0.851 | A -0.369
N68: V -0.008 | T 0.145 | M 0.042 | D -0.071 | A 0.029 | H 0.108 | S 0.02 | F -0.175 | R -0.086 | K 0.007 | Y -0.162 | Q 0.011 | L 0.038 | P -0.763 | G -0.049 | I -0.028 | W -0.118 | E 0.082
W70: D -0.485 | V -0.58 | M -0.756 | F 0.086 | S -0.348 | A -0.689 | R -0.679 | K -0.756 | Q -0.881 | P -0.93 | I -0.707 | E -0.753 | Y -0.296 | T -0.595 | H -0.374 | C -0.762 | G -0.687 | L -0.549
L67: S -0.829 | I -0.321 | N -0.553 | V -0.563 | W -0.81 | H -0.04 | F -0.698 | E -0.951 | A -0.562 | M -0.084 | C -0.427 | P -0.613 | R -0.716 | Q -1.2 | D -0.167 | T -0.711
L63: V -0.315 | T -0.582 | W -0.605 | G -0.643 | S -0.791 | C -0.736 | Y -0.368 | P -0.769 | R -0.766 | D -0.297 | F -0.148 | N -0.117 | E -0.436 | M -0.11 | K -0.887
S77: A 0.065 | L -0.098 | Q 0.106 | I -0.113 | H 0.054 | G 0.159 | M -0.029 | T 0.061 | F -0.243 | W -0.19 | E 0.002 | K 0.096 | N -0.141 | R -0.022 | V 0.045 | P 0.071 | Y 0.044 | D 0.036 | C -0.165
K64: A -0.199 | T -0.401 | Y -0.564 | E -0.564 | Q -0.009 | M -0.042 | N -0.334 | G -0.911 | I -0.814 | V -0.164 | C -0.38 | H -0.126 | S -0.405 | R 0.002 | D -0.653 | F -0.562 | L -0.511 | P -0.643
K69: T -0.251 | C -0.361 | N -0.249 | A -0.161 | Q -0.02 | V -0.559 | E -0.342 | H -0.254 | W -0.671 | P -0.662 | D -0.19 | G -0.119 | M -0.144 | R -0.058 | I 0.102 | Y -0.159
N59: F -0.62 | W -0.223 | V -0.031 | S -0.084 | L -0.074 | H 0.096 | G -0.04 | I -0.197 | Q -0.025 | K 0.042 | M 0.04 | R -0.017 | T -0.128
K62: D -0.268 | T -0.058 | H 0.03 | R -0.15 | C -0.224 | L -0.119 | Q -0.184 | G -0.365 | W -0.449 | F -0.278 | P -0.882 | N 0.06 | M -0.075 | E -0.095 | Y 0.035
D75: C 0.089 | L -0.214 | I -0.038 | M -0.4 | Y 0.151 | A -0.015 | Q 0.165 | V -0.115 | K -0.207 | W -0.262 | S 0.138 | E 0.109 | R -0.077 | T -0.274 | P 0.178 | H 0.395
T74: V 0.042 | A 0.12 | W -0.224 | H 0.231 | K 0.04 | I -0.479 | C -0.009 | E -0.121 | R -0.009 | N 0.278 | Q 0.089 | G -0.418 | S -0.141 | M -0.062 | F 0.453 | Y -0.156
M60: Q -1.05 | I -0.811 | S -0.448 | N 0.011 | W -0.826 | Y 0.109 | E -0.948 | R -0.826 | C -0.604 | G -0.673 | A -0.244 | V -0.701 | T -0.396 | K -0.09 | P -1.18 | L -0.256
E73: W -0.137 | Q 0.041 | I -0.351 | H -0.03 | P -0.378 | G -0.196 | L -0.018 | Y -0.197 | D 0.267 | T -0.034 | F -0.105 | M -0.012 | R -0.081 | V -0.128 | S -0.126 | A -0.038 | N -0.154
L66: F -0.031 | R -0.504 | E -0.936 | D -0.822 | V -0.18 | K -0.299 | P -0.644 | A -0.226 | W -0.33 | I 0.035 | Y 0.053 | G -0.78 | S -0.767 | M 0.162 | Q -0.4
C61: E -0.078 | Q 0.017 | A -0.001 | W -0.148 | K -0.043 | P -0.988 | T -0.384 | R -0.065 | M -0.036 | H -0.357 | D -0.96 | N -0.24 | V 0.045 | L -0.048 | I -0.134 | Y -0.164 | S -0.212 | F -0.538
E72: G -0.368 | T -0.148 | S -0.212 | K -0.049 | I -0.245 | Y -0.19 | N -0.152 | P -0.736 | L -0.024 | H -0.018 | F -0.493 | C -0.247 | Q -0.143 | A -0.193 | D 0.004 | R -0.079 | V -0.1 | M 0.037
S78: M -0.256 | V 0.021 | E -0.045 | A -0.023 | W -0.189 | F -0.199 | P -0.019 | G 0.153 | T 0.087 | K 0.164 | N 0.256 | R -0.032 | C 0.08 | L 0.091 | D 0.212 | Y -0.008 | Q -0.158
S76: I -0.426 | Q 0.106 | P 0.099 | M 0.012 | V -0.015 | W -0.495 | K 0.12 | C -0.341 | A -0.096 | D 0.089 | R 0.058 | T 0.103 | H -0.196 | L -0.112 | G 0.062
P65: Y -0.158 | H -0.173 | M -0.332 | G -0.167 | K -0.156 | T -0.246 | F -0.175 | V -0.113 | C -0.139 | L -0.284 | S -0.179 | D -0.053 | N -0.266 | W -0.389 | R -0.205 | E -0.193 | A -0.241 | Q -0.451

Variants of: B2
Assay: as above
Settings: Homo sapiens

Abundance fitness of substitutions, site by site:
K1: C -0.276 | A -0.32
